Results: PMC3233575, “DC-SIGN Increases the Affinity of HIV-1 Envelope Glycoprotein Interaction with CD4” (PLoS ONE, 2011)

Target: the molecule itself
Experiment: SEC; two tandem Superdex 200 3.2/30 PC columns, 100 mM Tris-HCl pH 7.9, 0.15 M NaCl, room temperature, about 50 µg refolded protein; monomer to oligomer equilibrium

B1: soluble recombinant DC-SIGN, entire extracellular domain (residues 70-404) (domain or fragment)
chain: EQSRQDAIYQNLTQLKAAVGELSEKSKLQEIYQELTQLKAAVGELPEKSKLQEIYQELTRLKAAVGELPEKSKLQEIYQELTWLKAAVGELPEKSKMQEIYQELTRLKAAVGELPEKSKQQEIYQELTRLKAAVGELPEKSKQQEIYQELTRLKAAVGELPEKSKQQEIYQELTQLKAAVERLCHPCPWEWTFFQGNCYFMSNSQRNWHDSITACKEVGAQLVVIKSAEEQNFLQLQSSRSNRFTWMGLSDLNQEGTWQWVDGSPLLPSFKQYWNRGEPNNVGEEDCAEFSGNGWNDDKCNLAKFWICKKSAASCSRDEEQFLSPAPATPNPPPA
notes: DC-SIGN, entire extracellular domain, residues 70-404 of GenBank NP_066978; cDNA of immature monocyte-derived dendritic cells; the sense primer carries an ATG before the first DC-SIGN codon; The preparation is a monomer:tetramer equilibrium (3.3:1 tetramer to monomer by SEC); the tetramer predominates. pET15b normally adds an N-terminal His6 tag with a thrombin site (surmised); no cleavage is …
- stoichiometry N: 4
